Patent US20150057331A1

Key:
CCR5 (human) = CCR5 (human) (UniProt P51681); test: cell-based or functional assay
CD4 (human) = CD4 (human) (UniProt P01730); test: cell-based or functional assay

| Substance | ATP release from primary human macrophages (luminescence assay), peak fold change against vehicle (CCR5 (human)) | ATP release from primary human macrophages (luminescence assay), peak fold change against vehicle (CD4 (human)) |
| --- | --- | --- |
| Monomeric gp120BaL (R5-tropic) | 1.8 fold | 1.8 fold |
| Monomeric gp120SF162 (R5-tropic) | 1.8 fold | 1.8 fold |
